Measured values as given in patent publication US20110287001A1, “METHOD OF TREATMENT” (TETRALOGIC PHARMACEUTICALS, priority 2008, published 2011).

Experiments:
Assay in all cases: ATPLITE cell viability, TRAIL and compound X with or without anti-human TNFα antibody
Type in all cases: cell-based
[1] = tested on: HCT116 colon cancer cells
Method: (§1) Cells were seeded in flat-bottom 96-well plates (clear bottom, white walls) at a concentration of 1×10^4 cells/well and incubated overnight at 37° C., 5% CO2. The following day, cells were stimulated with TRAIL at a concentration ranging from 0.24 ng/ml to 1 μg/ml (4-fold dilutions) in combination with IAP inhibitor compound X at a concentration ranging from 0.01 nM to […] (10-fold dilutions).
(§2) A blocking antibody to human TNFα (R&D Systems, Minneapolis, Minn.) was added to some cultures at a final concentration of 5 μg/ml two hours before the addition of the combination of TRAIL and compound X. Final culture volumes were 100 μl
(§3) After 48 hours, cell viability was determined using the ATPLITE™ assay, an adenosine triphosphate (ATP) monitoring system based on firefly (Photinus pyralis) luciferase (Perkin Elmer, Waltham, Mass.) according to the manufacturer's recommendations. Relative light units (RLU) were measured using an LJL Biosystems Analyst HT plate reader (Molecular Devices, Sunnyvale, Calif.). The percent of surviving cells was calculated as follows: (experimental RLU/control RLU)×100. The control RLU was determined by testing untreated cells.

[2] = tested on: SKOV-3 ovarian cancer cells; details: SKOV-3, 48 hours
Method: as §1, §2, §3

A375 melanoma cells = details: A375, 48 hours
Method: as §1, §2, §3

B1: TRAIL: TNF-related apoptosis-inducing ligand (TRAIL), TRAIL receptor agonist (protein, UniProt P50591 1-281, looked up)
Tumor necrosis factor ligand …: MAMMEVQGGPSLGQTCVLIVIFTVLLQSLCVAVTYVYFTNELKQMQDKYSKSGIACFLKEDDSYWDPNDEESMNSPCWQVKWQLRQLVRKMILRTSEETISTVQEKQQNISPLVRERGPQRVAAHITGTRGRSNTLSSPNSKNEKALGRKINSWESSRSGHSFLSNLHLRNGELVIHEKGFYYIYSQTYFRFQEEIKENTKNDKQMVQYIYKYTSYPDPILLMKSARNSCWSKDAEYGLYSIYQGGIFELKENDRIFVSVTNEHLIDMDHEASFFGAFLVG
- single agent-induced cell death ([1]; HCT116, 48 hours): some sensitivity
- surviving cells (percent of control) ([1]; HCT116, TRAIL 1 μg/ml, 48 hours): 40%
- single agent-induced cell death [2]: resistant
- single agent killing (A375 melanoma cells): partialy resistant
